Publication PMC12691273

B1: chicken forkhead box O1 (FOXO1) wild-type [chicken] / Ran protein [chicken (endogenous in granulosa cells)] (parent)
chain 1: MAEAPQLVDIDPDFEPLPRPRSCTWPLPRPEFNPPSSATSSPAPSCGGQPDGAAAAGAAVAVAASGALSADFISNLCLVEESEDFALPPAAAAPPESAACRCGDFSAPEAGCRLHPPGPPPVPPVPPAVAALSPGPVAGQPRKSSSSRRNAWGNLSYADLITKAIESSPEKRLTLSQIYEWMVKSVPYFKDKGDSNSSAGWKNSIRHNLSLHSKFIRVQNEGTGKSSWWMLNPEGGKSGKSPRRRAASMDNNSKFAKSRGRAAKKKASLQSGQEGNGDSPGSQFSKWPASPSSHSNDDFDNWSTFRPRTSSNASTISGRLSPILPEQDDLGDGDVHSMVYPSSATKMTSTLPSLSEMSSSENMENLLDNLNLLSPNTSMTVSTQSSSAALMQQTPGYSFASSTTSICSPNPDYRKFTYAQASMNSLPQIPMQTLQDSKSSYGSMSQFNCPAGLLKELLTSDSPPHNDILASVDTGVSQAGGRALGQGVLMVTNSVMPTYGNQPPHNKMMNPNARPHQGHNQPTPAVNGRALSHTVNPMSHTSCLNRLSTVKTSLQVPMSHQMQMNAMNPYAPVNSCNGYGRVGIVSLHQEKLPSDLDDMLIERLDCDMESIIRNDLMDGETLDFNFDSVLPNQSFQHSVKTTTHSWVSG
chain 2: not shown

Variants of: B1
Assay: co-immunoprecipitation (IP FOXO1, WB Ran), band quantification
Conditions: with Ran protein [chicken (endogenous in granulosa cells)]
[1] = with 740-Y-P, n = 3, read off a plot
[2] = with Ly294002, n = 3, read off a plot

| response [1] | response [2] | Variant |
| --- | --- | --- |
| 1.3 | 0.33 | chain 1 S311A |
| 1.2 | 0.28 | chain 1 S248A |
